Results on one molecule are retold here after paper doi:10.1101/2020.09.30.318261 (bioRxiv, 2020).

The target of this assay is SARS-CoV prefusion stabilised spike ectodomain trimer (SARS-CoV Urbani, stabilised). Kind of assay: cryo-EM structure.

B1: 47D11 Fab fragment (Fab, V domains shown)
VH: QVQLQESGPGLVKPSETLSLTCSVSGGSISSHYWSWIRQPPGKGLEWIGYIYYSGSTNHNPSLKSRVTISVDTSKNQFSLKLSSVTAADTAVYYCARGVLLWFGEPIFEIWGQGTMVTVSS
VL: EIVMTQSPATLSVSPGERATLSCRASQSVSSSLAWYQQKPGQAPRLLIYGASTRAPGIPARFSGSGSGTEFTLTISSLQSEDFAVYYCQQYNNWPLTFGGGTKVEI
In general, stoichiometry N refers to the number of molecules, sites or subunits per partner or assembly. As to B1, the “stoichiometry N” value was determined as 3 Fab per spike trimer.
